Experimental findings from patent US20120034160A1 (AbbVie / Abbott, published 2012) are described below.

One test concerns the target Recombinant Human IL-1β (human, UniProt P01584 117-269). Put plainly: cell-based or functional assay.
For another test, the target named is T1, Recombinant Human IL-17 (human, UniProt Q16552 20-155, limits assumed).
T1 sequence (looked up): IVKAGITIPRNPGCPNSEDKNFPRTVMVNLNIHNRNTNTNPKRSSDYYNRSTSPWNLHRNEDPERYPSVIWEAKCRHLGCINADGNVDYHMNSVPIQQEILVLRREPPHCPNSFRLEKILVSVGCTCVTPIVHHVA
Put plainly: cell-based or functional assay.

A value given as a limit tells only on which side of the number the result lay.

B1: DVD1623 (bispecific antibody, human IgG1, kappa)
heavy: not shown
light: DTQVTQSPSSLSASVGDRVTITCITSTDIDVDMNWYQQKPGKPPKLLISQGNTLRPGVPSRFSSSGSGTDFTFTISSLQPEDFATYYCLQSDNLPLTFGQGTKLEIKRTVAAPDIQMTQSPSSLSASVGDRVTITCRASSGIISYIDWFQQKPGKAPKRLIYATFDLASGVPSRFSGSGSGTDYTLTISSLQPEDFATYYCRQVGSYPETFGQGTKLEIKRTVAAPSVFIFPPSDEQLKSGTASVVCLLNNFYPREAKVQWKVDNALQSGNSQESVTEQDSKDSTYSLSSTLTLSKADYEKHKVYACEVTHQGLSSPVTKSFNRGEC
As for B1, the “N-Terminal VD IL-1β Neutralization Assay EC50” value in the test with Recombinant Human IL-1β was 0.16 nM. For the same molecule, the “C-terminal VD IL-17 Neutralization Assay EC50” value in the test with Recombinant Human IL-17 worked out at 0.0238 nM.

B2: DVD1627 (bispecific antibody, human IgG1, kappa)
heavy: not shown
light: ETTVTQSPSSLSASVGDRVTITCITSTDIDVDMNWYQQKPGKPPKLLISQGNTLRPGVPSRFSSSGSGTDFTFTISSLQPEDFATYYCLQSDNLPLTFGQGTKLEIKRTVAAPDIQMTQSPSSLSASVGDRVTITCRASSGIISYIDWFQQKPGKAPKRLIYATFDLASGVPSRFSGSGSGTDYTLTISSLQPEDFATYYCRQVGSYPETFGQGTKLEIKRTVAAPSVFIFPPSDEQLKSGTASVVCLLNNFYPREAKVQWKVDNALQSGNSQESVTEQDSKDSTYSLSSTLTLSKADYEKHKVYACEVTHQGLSSPVTKSFNRGEC
For B2, in the test with Recombinant Human IL-1β, the “N-Terminal VD IL-1β Neutralization Assay EC50” value was determined as 0.621 nM. In addition, the “C-terminal VD IL-17 Neutralization Assay EC50” value with Recombinant Human IL-17 came out at 0.0586 nM.

B3: DVD1644 (bispecific antibody, human IgG1, kappa)
heavy: not shown
light: EIVLTQSPDFQSVTPKEKVTITCRASQNIGSELHWYQQKPDQSPKLLIKYASHSISGVPSRFSGSGSGTDFTLTINGLEAEDAATYYCHQSDTLPHTFGQGTKVDIKRTVAAPDTQVTQSPSSLSASVGDRVTITCITSTDIDVDMNWYQQKPGKPPKLLISQGNTLRPGVPSRFSSSGSGTDFTFTISSLQPEDFATYYCLQSDNLPLTFGQGTKLEIKRTVAAPSVFIFPPSDEQLKSGTASVVCLLNNFYPREAKVQWKVDNALQSGNSQESVTEQDSKDSTYSLSSTLTLSKADYEKHKVYACEVTHQGLSSPVTKSFNRGEC
Take B3: the “C-Terminal VD IL-1β Neutralization Assay EC50” value with Recombinant Human IL-1β is 1.08 nM. Also, the “N-terminal VD IL-17 Neutralization Assay EC50” value with Recombinant Human IL-17 came to 0.0122 nM.

B4: DVD1626 (bispecific antibody, human IgG1, kappa)
heavy: not shown
light: DIQMTQSPSSLSASVGDRVTITCRASSGIISYIDWFQQKPGKAPKRLIYATFDLASGVPSRFSGSGSGTDYTLTISSLQPEDFATYYCRQVGSYPETFGQGTKLEIKRTVAAPDTVVTQSPAFLSVTPGEKVTITCITSTDIDVDMNWYQQKPDQPPKLLISQGNTLRPGVPSRFSSSGSGTDFTFTISSLEAEDAATYYCLQSDNLPLTFGQGTKLEIKRTVAAPSVFIFPPSDEQLKSGTASVVCLLNNFYPREAKVQWKVDNALQSGNSQESVTEQDSKDSTYSLSSTLTLSKADYEKHKVYACEVTHQGLSSPVTKSFNRGEC
For B4, the “C-Terminal VD IL-1β Neutralization Assay EC50” value with Recombinant Human IL-1β is 17.4 nM. In addition, the “N-terminal VD IL-17 Neutralization Assay EC50” value in the test with Recombinant Human IL-17 was 0.0064 nM.

B5: DVD1622 (bispecific antibody, human IgG1, kappa)
heavy: not shown
light: DIQMTQSPSSLSASVGDRVTITCRASSGIISYIDWFQQKPGKAPKRLIYATFDLASGVPSRFSGSGSGTDYTLTISSLQPEDFATYYCRQVGSYPETFGQGTKLEIKRTVAAPDIQMTQSPSSLSASVGDRVTITCRASGNIHNYLTWYQQTPGKAPKLLIYNAKTLADGVPSRFSGSGSGTDYTFTISSLQPEDIATYYCQHFWSIPYTFGQGTKLQITRTVAAPSVFIFPPSDEQLKSGTASVVCLLNNFYPREAKVQWKVDNALQSGNSQESVTEQDSKDSTYSLSSTLTLSKADYEKHKVYACEVTHQGLSSPVTKSFNRGEC
For the molecule B5, in the test with Recombinant Human IL-1β, the “C-Terminal VD IL-1β Neutralization Assay EC50” value is 3.92 nM. For the same molecule, the “N-terminal VD IL-17 Neutralization Assay EC50” value with Recombinant Human IL-17 was found to be 0.0083 nM.

B6: DVD1629 (bispecific antibody, human IgG1, kappa)
heavy: not shown
light: DIQMTQSPSSLSASVGDRVTITCRASGNIHNYLTWYQQTPGKAPKLLIYNAKTLADGVPSRFSGSGSGTDYTFTISSLQPEDIATYYCQHFWSIPYTFGQGTKLQITRTVAAPEIVLTQSPDFQSVTPKEKVTITCRASQDIGSELHWYQQKPDQPPKLLIKYASHSTSGVPSRFSGSGSGTDFTLTINGLEAEDAGTYYCHQTDSLPYTFGPGTKVDIKRTVAAPSVFIFPPSDEQLKSGTASVVCLLNNFYPREAKVQWKVDNALQSGNSQESVTEQDSKDSTYSLSSTLTLSKADYEKHKVYACEVTHQGLSSPVTKSFNRGEC
B6: the “N-Terminal VD IL-1β Neutralization Assay EC50” value with Recombinant Human IL-1β turned out to be 0.0126 nM. The “C-terminal VD IL-17 Neutralization Assay EC50” value with Recombinant Human IL-17 came to 0.359 nM.

B7: DVD1631 (bispecific antibody, human IgG1, kappa)
heavy: not shown
light: DIQMTQSPSSLSASVGDRVTITCRASGNIHNYLTWYQQTPGKAPKLLIYNAKTLADGVPSRFSGSGSGTDYTFTISSLQPEDIATYYCQHFWSIPYTFGQGTKLQITRTVAAPEIVLTQSPDFQSVTPKEKVTITCRASQDIGSELHWYQQKPDQPPKLLIKYASHSTSGVPSRFSGSGSGTDFTLTINGLEAEDAGTYYCHQTDSLPYTFGPGTKVDIKRTVAAPSVFIFPPSDEQLKSGTASVVCLLNNFYPREAKVQWKVDNALQSGNSQESVTEQDSKDSTYSLSSTLTLSKADYEKHKVYACEVTHQGLSSPVTKSFNRGEC
As for B7, the “N-Terminal VD IL-1β Neutralization Assay EC50” value in the test with Recombinant Human IL-1β worked out at 0.00417 nM. Besides, in the test with Recombinant Human IL-17, the “C-terminal VD IL-17 Neutralization Assay EC50” value was determined as 0.46 nM.

B8: DVD1624 (bispecific antibody, human IgG1, kappa)
heavy: not shown
light: DIQMTQSPSSLSASVGDRVTITCRASSGIISYIDWFQQKPGKAPKRLIYATFDLASGVPSRFSGSGSGTDYTLTISSLQPEDFATYYCRQVGSYPETFGQGTKLEIKRTVAAPDTQVTQSPSSLSASVGDRVTITCITSTDIDVDMNWYQQKPGKPPKLLISQGNTLRPGVPSRFSSSGSGTDFTFTISSLQPEDFATYYCLQSDNLPLTFGQGTKLEIKRTVAAPSVFIFPPSDEQLKSGTASVVCLLNNFYPREAKVQWKVDNALQSGNSQESVTEQDSKDSTYSLSSTLTLSKADYEKHKVYACEVTHQGLSSPVTKSFNRGEC
In the case of B8, in the test with Recombinant Human IL-1β, the “C-Terminal VD IL-1β Neutralization Assay EC50” value is above 20 nM. For the same molecule, the “N-terminal VD IL-17 Neutralization Assay EC50” value in the test with Recombinant Human IL-17 stood at 0.0042 nM.

B9: DVD1628 (bispecific antibody, human IgG1, kappa)
heavy: not shown
light: DIQMTQSPSSLSASVGDRVTITCRASSGIISYIDWFQQKPGKAPKRLIYATFDLASGVPSRFSGSGSGTDYTLTISSLQPEDFATYYCRQVGSYPETFGQGTKLEIKRTVAAPETTVTQSPSSLSASVGDRVTITCITSTDIDVDMNWYQQKPGKPPKLLISQGNTLRPGVPSRFSSSGSGTDFTFTISSLQPEDFATYYCLQSDNLPLTFGQGTKLEIKRTVAAPSVFIFPPSDEQLKSGTASVVCLLNNFYPREAKVQWKVDNALQSGNSQESVTEQDSKDSTYSLSSTLTLSKADYEKHKVYACEVTHQGLSSPVTKSFNRGEC
With B9, the “C-Terminal VD IL-1β Neutralization Assay EC50” value in the test with Recombinant Human IL-1β worked out at 5.85 nM. Further, the “N-terminal VD IL-17 Neutralization Assay EC50” value with Recombinant Human IL-17 came to 0.0163 nM.

B10: DVD1630 (bispecific antibody, human IgG1, kappa)
heavy: not shown
light: EIVLTQSPDFQSVTPKEKVTITCRASQDIGSELHWYQQKPDQPPKLLIKYASHSTSGVPSRFSGSGSGTDFTLTINGLEAEDAGTYYCHQTDSLPYTFGPGTKVDIKRTVAAPDIQMTQSPSSLSASVGDRVTITCRASGNIHNYLTWYQQTPGKAPKLLIYNAKTLADGVPSRFSGSGSGTDYTFTISSLQPEDIATYYCQHFWSIPYTFGQGTKLQITRTVAAPSVFIFPPSDEQLKSGTASVVCLLNNFYPREAKVQWKVDNALQSGNSQESVTEQDSKDSTYSLSSTLTLSKADYEKHKVYACEVTHQGLSSPVTKSFNRGEC
As to B10, the “C-Terminal VD IL-1β Neutralization Assay EC50” value in the test with Recombinant Human IL-1β stood at 9.38 nM. Further, the “N-terminal VD IL-17 Neutralization Assay EC50” value with Recombinant Human IL-17 turned out to be 0.0041 nM.

B11: DVD1632 (bispecific antibody, human IgG1, kappa)
heavy: not shown
light: EIVLTQSPDFQSVTPKEKVTITCRASQDIGSELHWYQQKPDQPPKLLIKYASHSTSGVPSRFSGSGSGTDFTLTINGLEAEDAGTYYCHQTDSLPYTFGPGTKVDIKRTVAAPDIQMTQSPSSLSASVGDRVTITCRASGNIHNYLTWYQQTPGKAPKLLIYNAKTLADGVPSRFSGSGSGTDYTFTISSLQPEDIATYYCQHFWSIPYTFGQGTKLQITRTVAAPSVFIFPPSDEQLKSGTASVVCLLNNFYPREAKVQWKVDNALQSGNSQESVTEQDSKDSTYSLSSTLTLSKADYEKHKVYACEVTHQGLSSPVTKSFNRGEC
As for B11, the “C-Terminal VD IL-1β Neutralization Assay EC50” value in the test with Recombinant Human IL-1β was determined as 0.438 nM. Further, the “N-terminal VD IL-17 Neutralization Assay EC50” value in the test with Recombinant Human IL-17 was 0.0065 nM.

B12: DVD1621 (bispecific antibody, human IgG1, kappa)
heavy: not shown
light: DIQMTQSPSSLSASVGDRVTITCRASGNIHNYLTWYQQTPGKAPKLLIYNAKTLADGVPSRFSGSGSGTDYTFTISSLQPEDIATYYCQHFWSIPYTFGQGTKLQITRTVAAPDIQMTQSPSSLSASVGDRVTITCRASSGIISYIDWFQQKPGKAPKRLIYATFDLASGVPSRFSGSGSGTDYTLTISSLQPEDFATYYCRQVGSYPETFGQGTKLEIKRTVAAPSVFIFPPSDEQLKSGTASVVCLLNNFYPREAKVQWKVDNALQSGNSQESVTEQDSKDSTYSLSSTLTLSKADYEKHKVYACEVTHQGLSSPVTKSFNRGEC
For B12, the “N-Terminal VD IL-1β Neutralization Assay EC50” value in the test with Recombinant Human IL-1β was found to be 0.0114 nM. Also, the “C-terminal VD IL-17 Neutralization Assay EC50” value in the test with Recombinant Human IL-17 was 0.0397 nM.

B13: DVD1625 (bispecific antibody, human IgG1, kappa)
heavy: not shown
light: DTVVTQSPAFLSVTPGEKVTITCITSTDIDVDMNWYQQKPDQPPKLLISQGNTLRPGVPSRFSSSGSGTDFTFTISSLEAEDAATYYCLQSDNLPLTFGQGTKLEIKRTVAAPDIQMTQSPSSLSASVGDRVTITCRASSGIISYIDWFQQKPGKAPKRLIYATFDLASGVPSRFSGSGSGTDYTLTISSLQPEDFATYYCRQVGSYPETFGQGTKLEIKRTVAAPSVFIFPPSDEQLKSGTASVVCLLNNFYPREAKVQWKVDNALQSGNSQESVTEQDSKDSTYSLSSTLTLSKADYEKHKVYACEVTHQGLSSPVTKSFNRGEC
Take B13: the “N-Terminal VD IL-1β Neutralization Assay EC50” value with Recombinant Human IL-1β is 0.522 nM. Further, in the test with Recombinant Human IL-17, the “C-terminal VD IL-17 Neutralization Assay EC50” value was 0.0076 nM.
